# Data from the supplement of paper PMC11780869.
# Test system: Bacillus subtilis
# Experiment: cleaved RNA product abundance (RNA/gDNA barcode ratio) relative to median wild-type variant (ratio to wild type); higher = more accumulation of the downstream cleavage product
# Settings: cleavage site: cggR-gapA (positions -7 to +36 mutated)
# Procedure, shortened: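 Reporter mRNAs (truncated aprE or tetM) carrying barcoded, mutagenized RNase Y cleavage-site windows were made from oligos with a 9% error rate and integrated into the B. subtilis chromosome. Cultures grew in LB at 37°C from OD600 0.0003 to 0.3. Cleaved RNA was gel-selected, reverse transcribed and barcode-sequenced alongside genomic DNA barcodes, with UMI collapsing. Cleaved product abundance is the RNA:gDNA barcode ratio per variant, scaled to the median wild-type variant.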
# [1] = experiment (reporter, strain, medium): exp 2b: truncated aprE reporter, strain BJT200
# [2] = experiment (reporter, strain, medium): exp 4a: truncated aprE reporter, strain BJT201 with 2% xylose (RNase J1 expressed)
Sequence,cleaved RNA product abundance [1],cleaved RNA product abundance [2],"cleaved RNA product abundance (experiment (reporter, strain, medium): exp 6: tetM reporter, strain 168)"
ACAGACGAAGGAGCCGCAAAGAATTTATTAAGGAATGAATAATCCCTCAATATAAATATCTCTCACTTATTTAAA,0.0897,0.125,–
ACAGACGAAGGAGCCGCAAAGAATTTATTAAGGCATGAATAATCCCTCAATATAAATATCTCTCACTTATTTAAA,0.1,0.111,–
ACAGACGAAGGAGCCGCAAAGAATTTATTAAGGCATGAATAATCCCTCTATATAAATATCTCTCACTTATTTAAA,–,0.107,–
ACAGACGAAGGAGCCGCAAAGAATTTATTAAGGGAAGAATAATCCCTCAATATAAATATCTCTCACTTATTTAAA,0.289,0.518,–
ACAGACGAAGGAGCCGCAAAGAATTTATTAAGGGACGAATAATCCCTCAATATAAATATCTCTCACTTATTTAAA,0.463,0.605,–
ACAGACGAAGGAGCCGCAAAGAATTTATTAAGGGAGGAATAATCCCTCAATATAAATATCTCTCACTTATTTAAA,–,0.459,–
ACAGACGAAGGAGCCGCAAAGAATTTATTAAGGGATAAATAATCCCTCAATATAAATATCTCTCACTTATTTAAA,0.767,0.595,–
ACAGACGAAGGAGCCGCAAAGAATTTATTAAGGGATCAATAATCCCTCAATATAAATATCTCTCACTTATTTAAA,–,0.73,–
ACAGACGAAGGAGCCGCAAAGAATTTATTAAGGGATGAAAAATCCCTCAATATAAATATCTCTCACTTATTTAAA,0.561,0.35,–
ACAGACGAAGGAGCCGCAAAGAATTTATTAAGGGATGAACAATCCCTCAATATAAAAATCTCTCACTTATTTAAA,–,0.8,–
ACAGACGAAGGAGCCGCAAAGAATTTATTAAGGGATGAACAATCCCTCAATATAAATATCTCTCACTTATTTAAA,–,0.451,–
ACAGACGAAGGAGCCGCAAAGAATTTATTAAGGGATGAATAAACCCTCAATATAAATATCTCTCACTTATTTAAA,0.322,0.292,–
ACAGACGAAGGAGCCGCAAAGAATTTATTAAGGGATGAATAACCCCTCAATATAAATATCTCTCACTTATTTAAA,–,0.452,–
ACAGACGAAGGAGCCGCAAAGAATTTATTAAGGGATGAATAAGCCCTCAATATAAATATCTCTCACTTATTTAAA,0.502,0.573,–
ACAGACGAAGGAGCCGCAAAGAATTTATTAAGGGATGAATAATACCTCAATATAAATATCTCTCACTTATTTAAA,0.105,0.177,–
ACAGACGAAGGAGCCGCAAAGAATTTATTAAGGGATGAATAATCACTCAATATAAATATCTCTCACTTATTTAAA,0.134,0.119,–
ACAGACGAAGGAGCCGCAAAGAATTTATTAAGGGATGAATAATCCATCAATATAAATATCTCTCACTTATTTAAA,0.204,0.269,–
ACAGACGAAGGAGCCGCAAAGAATTTATTAAGGGATGAATAATCCCACAATATAAATATCTCTCACTTATTTAAA,–,0.259,–
ACAGACGAAGGAGCCGCAAAGAATTTATTAAGGGATGAATAATCCCCCAATATAAATATCTCTCACTTATTTAAA,0.189,0.202,–
ACAGACGAAGGAGCCGCAAAGAATTTATTAAGGGATGAATAATCCCTAAATATAAATATCTCTCACTTATTTAAA,0.496,0.591,–

Sequence,cleaved RNA product abundance [1],cleaved RNA product abundance [2],"cleaved RNA product abundance (experiment (reporter, strain, medium): exp 6: tetM reporter, strain 168)"
ACAGACGAAGGAGCCGCAAAGAATTTATTAAGGGATGAATAATCCCTCAAAATAAATATCTCTCACTTATTTAAA,0.198,0.273,–
ACAGACGAAGGAGCCGCAAAGAATTTATTAAGGGATGAATAATCCCTCAACATAAATATCTCTCACTTATTTAAA,0.298,0.365,–
ACAGACGAAGGAGCCGCAAAGAATTTATTAAGGGATGAATAATCCCTCAATAAAAATATCTCTCACTTATTTAAA,–,0.066,–
ACAGACGAAGGAGCCGCAAAGAATTTATTAAGGGATGAATAATCCCTCAATAGAAATATCTCTCACTTATTTAAA,–,0.0925,–
ACAGACGAAGGAGCCGCAAAGAATTTATTAAGGGATGAATAATCCCTCAATATAAAAATCTCTCACTTATTTAAA,–,0.532,–
ACAGACGAAGGAGCCGCAAAGAATTTATTAAGGGATGAATAATCCCTCAATATAAACATCTCTCACTTATTTAAA,0.291,0.683,–
ACAGACGAAGGAGCCGCAAAGAATTTATTAAGGGATGAATAATCCCTCAATATAAATAACTCTCACTTATTTAAA,–,0.544,–
ACAGACGAAGGAGCCGCAAAGAATTTATTAAGGGATGAATAATCCCTCAATATAAATAGCTCTCACTTATTTAAA,–,0.327,–
ACAGACGAAGGAGCCGCAAAGAATTTATTAAGGGATGAATAATCCCTCAATATAAATATCTCTCACTTATTAAAG,–,0.836,–
ACAGACGAAGGAGCCGCAAAGAATTTATTAAGGGATGAATAATCCCTCAATATAAATATCTCTCACTTATTTAAA,0.775,0.743,0.623
ACAGACGAAGGAGCCGCAAAGAATTTATTAAGGGATGAATAATCCCTCAATATAAATATTTCTCACTTATTTAAA,–,0.259,–
ACAGACGAAGGAGCCGCAAAGAATTTATTAAGGGATGAATAATCCCTCAATATAAATGTCTCTCACTTATTTAAA,–,0.282,–
ACAGACGAAGGAGCCGCAAAGAATTTATTAAGGGATGAATAATCCCTCAATATAAGTATCTCTCACTTATTTAAA,–,0.216,–
ACAGACGAAGGAGCCGCAAAGAATTTATTAAGGGATGAATAATCCCTCAATATAATTATCTCTCACTTATTTAAA,–,0.354,–
ACAGACGAAGGAGCCGCAAAGAATTTATTAAGGGATGAATAATCCCTCAATATACATATCTCTCACTTATTTAAA,–,0.606,–
ACAGACGAAGGAGCCGCAAAGAATTTATTAAGGGATGAATAATCCCTCAATATAGATATCTCTCACTTATTTAAA,–,0.431,–
ACAGACGAAGGAGCCGCAAAGAATTTATTAAGGGATGAATAATCCCTCAATATATATATCTCTCACTTATTTAAA,0.649,0.46,–
ACAGACGAAGGAGCCGCAAAGAATTTATTAAGGGATGAATAATCCCTCAATATTAATATCTCTCACTTATTTAAA,0.109,–,–
ACAGACGAAGGAGCCGCAAAGAATTTATTAAGGGATGAATAATCCCTCAATCTAAATATCTCTCACTTATTTAAA,–,0.102,–
ACAGACGAAGGAGCCGCAAAGAATTTATTAAGGGATGAATAATCCCTCAATTTAAATATCTCTCACTTATTTAAA,0.154,0.0947,–

Sequence,cleaved RNA product abundance [1],cleaved RNA product abundance [2],"cleaved RNA product abundance (experiment (reporter, strain, medium): exp 6: tetM reporter, strain 168)"
ACAGACGAAGGAGCCGCAAAGAATTTATTAAGGGATGAATAATCCCTCACTATAAATATCTCTCACTTATTTAAA,0.193,0.283,–
ACAGACGAAGGAGCCGCAAAGAATTTATTAAGGGATGAATAATCCCTCATTATAAATATCTCTCACTTATTTAAA,0.278,0.377,–
ACAGACGAAGGAGCCGCAAAGAATTTATTAAGGGATGAATAATCCCTCCATATAAATATCTCTCACTTATTTAAA,–,0.424,–
ACAGACGAAGGAGCCGCAAAGAATTTATTAAGGGATGAATAATCCCTCGATATAAATATCTCTCACTTATTTAAA,–,0.422,–
ACAGACGAAGGAGCCGCAAAGAATTTATTAAGGGATGAATAATCCCTCTATATAAATATCTCTCACTTATTTAAA,0.363,0.543,–
ACAGACGAAGGAGCCGCAAAGAATTTATTAAGGGATGAATAATCCCTTAATATAAATATCTCTCACTTATTTAAA,–,0.448,–
ACAGACGAAGGAGCCGCAAAGAATTTATTAAGGGATGAATAATCCGTCAATATAAATATCTCTCACTTATTTAAA,–,0.163,–
ACAGACGAAGGAGCCGCAAAGAATTTATTAAGGGATGAATAATCCTTCAATATAAATATCTCTCACTTATTTAAA,–,0.397,–
ACAGACGAAGGAGCCGCAAAGAATTTATTAAGGGATGAATAATCGCTCAATATAAATATCTCTCACTTATTTAAA,0.105,0.0604,–
ACAGACGAAGGAGCCGCAAAGAATTTATTAAGGGATGAATAATCTCTCAATATAAATATCTCTCACTTATTTAAA,–,0.844,–
ACAGACGAAGGAGCCGCAAAGAATTTATTAAGGGATGAATAATGCATCAATATAAATATCTCTCACTTATTTAAA,–,0.2,–
ACAGACGAAGGAGCCGCAAAGAATTTATTAAGGGATGAATAATGCCTCAATATAAATATCTCTCACTTATTTAAA,–,0.177,–
ACAGACGAAGGAGCCGCAAAGAATTTATTAAGGGATGAATAATTCCTCAATATAAATATCTCTCACTTATTTAAA,–,0.394,–
ACAGACGAAGGAGCCGCAAAGAATTTATTAAGGGATGAATACTCCCTCAATATAAATATCTCTCACTTATTTAAA,0.404,0.583,–
ACAGACGAAGGAGCCGCAAAGAATTTATTAAGGGATGAATAGTCCCTCAATATAAATATCTCTCACTTATTTAAA,–,0.713,–
ACAGACGAAGGAGCCGCAAAGAATTTATTAAGGGATGAATCATCCCTCAATATAAATATCTCTCACTTATTTAAA,–,0.545,–
ACAGACGAAGGAGCCGCAAAGAATTTATTAAGGGATGAATTATCCCTCAATATAAATATCTCTCACTTATTTAAA,0.531,0.268,–
ACAGACGAAGGAGCCGCAAAGAATTTATTAAGGGATGACTAATCCCTCAATATAAATATCTCTCACTTATTTAAA,0.3,–,–
ACAGACGAAGGAGCCGCAAAGAATTTATTAAGGGATGCATAATCCCTCAATATAAATATCTCTCACTTATTTAAA,0.535,0.597,–
